Measurements as given in paper PMC5705219, “A map of human PRDM9 binding provides evidence for novel behaviors of PRDM9 and other zinc-finger proteins in meiosis” (eLife, 2017).

Target: the molecule itself
Experiment: co-IP; direct competition: HEK293T transfected with three constructs, Human and Chimp prey with the same epitope tag and Human or Chimp bait with the complementary tag; IP against the bait tag, western against the prey tag; both directions of HA/V5 tagging

B1: full-length human PRDM9 (B allele), C-terminally tagged with HA or V5 (natural protein)
chain: not shown
notes: synthetic cDNA of the full-length 2,685 bp transcript with 218 synonymous base changes in the zinc-finger exon; An HA and a V5 version were made; tag cassette is linker-TwinStrep-linker-HA/V5-linker-P2A between PRDM9 and YFP; also called Human-HA; Human-V5; source: HEK293T, transfected (pLENTI CMV/TO Puro DEST, FuGENE-HD), in lysate; not shown: HA or V5, C-terminal, kept
Q: How did the “fold pull-down efficiency against Chimp PRDM9 prey on the same Human bait” value turn out when B1 was run?
A: Its value is > 2 fold.
